According to patent US10808017B2, “Ubiquitin variants and uses therof as 53BP1 inhibitors” (The Governing Council of the University of Toronto, priority 2016, dated 2020):

Key:
[1] = test system: γ-H2AX focus formation in U2OS cells; test: Ionizing radiation focus formation, γ-H2AX (immunofluorescence); type: cell-based; settings: transfected U2OS cells, 10 Gy, 1 h post-irradiation
Method: FIG. 3. The i53 protein inhibits 53BP1. FIG. 3A-B, U2OS cells were transfected with vectors expressing i53, its 53BP1-binding deficient mutant (DM) or an empty vector (EV) control. Cells were then X-irradiated with a 10 Gy dose and processed for immunofluorescence with the indicated antibodies 1 h post-irradiation (IR). DAPI staining (not shown) was used to delineate the outline (dashed lines) of the cell nuclei. The region in the magnified inset is indicated with a square. Quantitation of the experiment is shown in panel (a) and data is indicated as the mean±s.e.m (N=3), whereas in (b) representative micrographs are shown. Arrowheads indicate Flag-positive cells. FIG. 3C, Parental or 53BP1ΔU2OS cells transfected with vectors expressing i53, the DM mutant or an empty vector (EV) control were irradiated (10 Gy) 1 h before being processed for immunofluorescence. Cell cycle stage was assessed by Cyclin A staining. The data is presented as the mean±s.e.m.; N=3. FIG. 3D, Immunoprecipitation (IP) of Flag-tagged proteins from extracts prepared from 293T cells transfected with vectors expressing Flag-i53 or the i53-DM mutant. Proteins were separated by SDS-PAGE and immunoblotted (IB) for Flag and 53BP1. […]

[2] = test system: MMEJ in U2OS EJ2-GFP cells; test: EJ2-GFP reporter assay for MMEJ; type: cell-based; settings: GFP-positive cells 48 h post-transfection, N=4
Method: FIG. 8 (Related to FIG. 3.) FIG. 8A, Immunoblots of whole cell lysates prepared from U2OS DR-GFP cells transfected with vectors expressing Flag-tagged i53, its DM mutant or an empty vector along with an I-SceI expression vector and probed with the indicated antibodies. FIG. 8B, U2OS DR-GFP cells were transfected with the vectors expressing Flag-tagged i53 or the DM mutant along with an I-SceI expression vector. Cells were treated either with DMSO (−) or 1 μM SCR7 (+). The percentage of GFP-positive cells was determined 48 h post-transfection for each condition and was normalized to the DM condition (mean±s.d., N=4). FIG. 8C, Control immunoblot of the experiment shown in (b). FIG. 8D, Immunoblots of whole cell lysates prepared from U2OS DR-GFP cells transfected with the indicated siRNAs along with an I-Scel expression vector and probed with the indicated antibodies. […] The percentage of GFP-positive cells was determined 48 h post-transfection for each condition and was normalized to the empty vector condition (mean±s.d., N=4). […]
The direct repeat (DR)-GFP assay to measure the frequency of HR and the strand annealing EJ2-GFP assay to measure the frequency of MMEJ were performed as previously described. […] 48 h post-plasmid transfection, the cells were trypsinized and the percentage of GFP-expressing cells was analyzed using the BD FACSCalibur flow cytometer.

[3] = molecular target: T1, RPL24 (Homo sapiens, UniProt P83731); test: Flag IP-MS of i53/i53-DM baits: prey RPL24; type: binding; settings: 293T Flp-In/T-Rex extracts, LC-MS/MS, one column per replicate IP
T1 construct: endogenous in cells; host or cells: HEK293 Flp-In/T-REx
Method: (§1) Following immunoprecipitation of Flag-tagged i53 and i-53-DM from HEK293 Flp-In/T-REx cells, peptides were identified using LC-MS/MS. Proteins were digested in solution with trypsin (Sigma, T7575-1KT) and dried to completeness. For LC-MS/MS analysis, peptides were reconstituted in 5% formic acid and loaded onto a 12-15 cm fused silica column with pulled tip packed in-house with 3.5 μm Zorbax C18 (Agilent Technologies, Calif., USA).
(§2) i53 and i53-DM precipitates were analyzed using an LTQ (Thermo Scientific) coupled to an Agilent 1100 Series HPLC (Agilent Technologies). Peptides were eluted from the column using a 90 min period cycle with a linear gradient from 0% to 40% ACN in 0.1% formic acid. Tandem MS spectra were acquired in a data-dependent mode for the top 5 (LTQ) most abundant ions using collision-induced dissociation. Acquired spectra were searched against the human Refseq_V53 database using Mascot (Matrix Science).
(§3) 293T Flp-In/T-Rex cell lines were generated that expressed Flag-tagged i53 or i53-DM under the control of a tetracycline-inducible promoter as previously described. Nine IP-MS experiments were analyzed (3 biological replicate IPs each for control i53- and i53-DM expressing cell lines). The interacting proteins were identified by MASCOT to identify high-confidence interactors for i53. […]

[4] = molecular target: T2, PHB (Homo sapiens, UniProt P35232); test: Flag IP-MS of i53/i53-DM baits: prey PHB; type: binding; settings: 293T Flp-In/T-Rex extracts, LC-MS/MS, one column per replicate IP
T2 construct: endogenous in cells; host or cells: HEK293 Flp-In/T-REx
T2 sequence (P35232 1-272): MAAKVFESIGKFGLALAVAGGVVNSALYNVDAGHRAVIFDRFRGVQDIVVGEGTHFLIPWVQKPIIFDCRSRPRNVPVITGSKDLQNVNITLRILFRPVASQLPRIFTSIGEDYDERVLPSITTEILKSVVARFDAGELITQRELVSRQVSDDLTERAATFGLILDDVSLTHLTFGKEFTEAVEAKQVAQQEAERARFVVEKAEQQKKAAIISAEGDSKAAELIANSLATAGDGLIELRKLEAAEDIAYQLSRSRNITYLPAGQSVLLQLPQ
Method: as §1, §2, §3

[5] = molecular target: T3, KDM5B (Homo sapiens, UniProt Q9UGL1); test: Flag IP-MS of i53/i53-DM baits: prey KDM5B; type: binding; settings: 293T Flp-In/T-Rex extracts, LC-MS/MS, one column per replicate IP
T3 construct: endogenous in cells; host or cells: HEK293 Flp-In/T-REx
T3 sequence (Q9UGL1 whole entry): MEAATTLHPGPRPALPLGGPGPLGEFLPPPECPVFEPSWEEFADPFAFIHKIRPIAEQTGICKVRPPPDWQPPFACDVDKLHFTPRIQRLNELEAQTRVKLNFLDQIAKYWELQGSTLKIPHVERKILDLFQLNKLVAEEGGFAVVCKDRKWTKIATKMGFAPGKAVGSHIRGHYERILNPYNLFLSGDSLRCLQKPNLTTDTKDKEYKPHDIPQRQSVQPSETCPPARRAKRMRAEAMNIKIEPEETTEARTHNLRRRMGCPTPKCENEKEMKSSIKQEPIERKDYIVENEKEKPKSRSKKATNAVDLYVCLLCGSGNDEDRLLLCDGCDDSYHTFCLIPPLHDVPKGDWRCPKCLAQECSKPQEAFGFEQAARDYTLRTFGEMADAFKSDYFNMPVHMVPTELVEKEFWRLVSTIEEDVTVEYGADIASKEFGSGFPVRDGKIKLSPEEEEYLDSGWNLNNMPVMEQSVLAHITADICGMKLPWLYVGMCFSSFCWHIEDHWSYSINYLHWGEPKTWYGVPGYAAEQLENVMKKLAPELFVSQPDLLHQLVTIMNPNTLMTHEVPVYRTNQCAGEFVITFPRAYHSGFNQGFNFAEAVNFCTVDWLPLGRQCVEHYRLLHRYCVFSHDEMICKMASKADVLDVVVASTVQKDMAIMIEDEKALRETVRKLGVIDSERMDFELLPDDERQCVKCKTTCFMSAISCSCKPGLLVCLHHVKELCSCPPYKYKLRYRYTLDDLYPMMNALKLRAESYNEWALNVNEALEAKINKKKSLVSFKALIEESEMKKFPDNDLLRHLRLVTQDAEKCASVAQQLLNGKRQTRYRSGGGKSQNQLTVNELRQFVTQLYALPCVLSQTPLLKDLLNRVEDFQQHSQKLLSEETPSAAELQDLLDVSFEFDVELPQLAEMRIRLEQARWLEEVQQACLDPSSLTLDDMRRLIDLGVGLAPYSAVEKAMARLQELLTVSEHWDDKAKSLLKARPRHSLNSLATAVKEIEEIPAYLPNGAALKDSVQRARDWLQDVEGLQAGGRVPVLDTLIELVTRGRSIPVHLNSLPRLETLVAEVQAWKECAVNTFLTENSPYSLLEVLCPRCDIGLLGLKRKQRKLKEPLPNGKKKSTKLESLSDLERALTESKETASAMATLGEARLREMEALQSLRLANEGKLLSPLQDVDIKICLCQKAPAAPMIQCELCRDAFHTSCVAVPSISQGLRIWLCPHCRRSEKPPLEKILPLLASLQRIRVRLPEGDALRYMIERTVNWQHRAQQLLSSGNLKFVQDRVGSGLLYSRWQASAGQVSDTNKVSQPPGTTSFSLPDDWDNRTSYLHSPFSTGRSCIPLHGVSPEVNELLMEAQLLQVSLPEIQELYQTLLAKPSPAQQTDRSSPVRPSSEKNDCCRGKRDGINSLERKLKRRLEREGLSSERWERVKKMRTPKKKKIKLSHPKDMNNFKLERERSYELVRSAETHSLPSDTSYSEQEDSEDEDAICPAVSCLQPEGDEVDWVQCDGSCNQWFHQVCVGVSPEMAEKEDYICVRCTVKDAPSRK
Method: as §1, §2, §3

Total peptides, RPL24 [3] | Total peptides, PHB [4] | Total peptides, KDM5B [5] | Substance | γ-H2AX focus formation [1] | Increase in MMEJ over the empty vector [2]
5 | 2 | – | i53: UbvG08 with C-terminal di-glycine removed and I44A mutation; genetically encoded inhibitor of 53BP1 | did not impact | 1.4+/−0.15 fold
5 | – | 3 | i53-DM: 53BP1-binding deficient mutant of i53 (P69L, L70V) | – | 1.3+/−0.1 fold
